Data reported in patent US20180187211A1.

Target: PDL1 on the surface of TC-1 cells (mouse (TC-1 murine tumor cell line)) (UniProt Q9EP73)
Test: flow cytometry, staining of TC-1 tumor cells (background control)

UniProt Q9EP73, sequence (Q9EP73 19-290): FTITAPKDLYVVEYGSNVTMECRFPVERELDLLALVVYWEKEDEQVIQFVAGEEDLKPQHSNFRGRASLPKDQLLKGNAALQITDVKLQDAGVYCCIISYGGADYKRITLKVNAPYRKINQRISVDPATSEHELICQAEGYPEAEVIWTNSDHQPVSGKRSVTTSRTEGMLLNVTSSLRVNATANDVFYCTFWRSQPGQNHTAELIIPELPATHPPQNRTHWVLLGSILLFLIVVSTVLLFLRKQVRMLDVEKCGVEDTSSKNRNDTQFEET

## PE-conjugated isotype control antibody
  median fluorescent intensity (MFI): 184 MFI
